The record followed here is patent publication CN111138531A (INST MILITARY MEDICINE ACADEMY MILITARY SCIENCES PLA, dated 2020).

The target in this assay is GPdM (EBOV, UniProt Q05320 33-632). In words: ELISA on coated truncated GP, method as example 2.

B1: 单克隆抗体8F9 (antibody, V domains shown)
VH: EVQLLESGGGLVQPGGSLRLSCAASEFTFSNYAMNWVRQAPGKGLEWVSGISTRGSSTYYADSVKGRFTISRDNSKNTLYLQMNSLRVEDTAVYYCAKDRLSVFGVVLISSDYYGMDVWGQGTTVTVSS
VL: AIRMTQSPFSLSASVGDRVTITCRASRTISSYLNWYQKKPGKAPKLLIYAASSLQSGVPSRFSGSGSGTDFTLTISSLQPEDFATYYCQQSYSTPMTFGQGTRLEIKT
In turn, B1 displayed an EC50 of 6.2 ng/mL.

Broadly, the EC50 is the concentration that produces a half-maximal response. High values mean a less potent agent, low ones a more potent agent.
